Assay results taken from IntAct's records for PubMed 11779503.

B1: Mothers against decapentaplegic homolog 2 (Homo sapiens), Q15796 (parent)
chain: MSSILPFTPPVVKRLLGWKKSAGGSGGAGGGEQNGQEEKWCEKAVKSLVKKLKKTGRLDELEKAITTQNCNTKCVTIPSTCSEIWGLSTPNTIDQWDTTGLYSFSEQTRSLDGRLQVSHRKGLPHVIYCRLWRWPDLHSHHELKAIENCEYAFNLKKDEVCVNPYHYQRVETPVLPPVLVPRHTEILTELPPLDDYTHSIPENTNFPAGIEPQSNYIPETPPPGYISEDGETSDQQLNQSMDTGSPAELSPTTLSPVNHSLDLQPVTYSEPAFWCSIAYYELNQRVGETFHASQPSLTVDGFTDPSNSERFCLGLLSNVNRNATVEMTRRHIGRGVRLYYIGGEVFAECLSDSAIFVQSPNCNQRYGWHPATVCKIPPGCNLKIFNNQEFAALLAQSVNQGFEAVYQLTRMCTIRMSFVKGWGAEYRRQTVTSTPCWIELHLNGPLQWLDKVLTQMGSPSVRCSSMS
B2: Mothers against decapentaplegic homolog 4 (Homo sapiens), Q13485 (parent)
chain: MDNMSITNTPTSNDACLSIVHSLMCHRQGGESETFAKRAIESLVKKLKEKKDELDSLITAITTNGAHPSKCVTIQRTLDGRLQVAGRKGFPHVIYARLWRWPDLHKNELKHVKYCQYAFDLKCDSVCVNPYHYERVVSPGIDLSGLTLQSNAPSSMMVKDEYVHDFEGQPSLSTEGHSIQTIQHPPSNRASTETYSTPALLAPSESNATSTANFPNIPVASTSQPASILGGSHSEGLLQIASGPQPGQQQNGFTGQPATYHHNSTTTWTGSRTAPYTPNLPHHQNGHLQHHPPMPPHPGHYWPVHNELAFQPPISNHPAPEYWCSIAYFEMDVQVGETFKVPSSCPIVTVDGYVDPSGGDRFCLGQLSNVHRTEAIERARLHIGKGVQLECKGEGDVWVRCLSDHAVFVQSYYLDREAGRAPGDAVHKIYPSAYIKVFDLRQCHRQMQQQAATAQAAAAAQAAAVAGNIPGPGSVGGIAPAISLSAAAGIGVDDLRRLCILRMSFVKGWGPDYPRQSIKETPCWIEIHLHRALQLLDEVLHTMPIADPQPLD

Variants of: B1
Settings: with smad4_human SMAD4, Q13485
With R310H;K375A the “effect of a mutation on the interaction” value was “with no effect”.
In the case of N387P, the “effect of a mutation on the interaction” value is reported as “with no effect”.
With D300H the “effect of a mutation on the interaction” value was “decreasing interaction strength”.
With Y406H the “effect of a mutation on the interaction” value was “with no effect”.
With R310H;K420A the “effect of a mutation on the interaction” value was “with no effect”.
Y426A was tested, and the “effect of a mutation on the interaction” value was “with no effect”.
In the case of R310H, the “effect of a mutation on the interaction” value is reported as “decreasing interaction strength”.
In the case of W368H, the “effect of a mutation on the interaction” value is reported as “with no effect”.
In the case of K375H;K420A, the “effect of a mutation on the interaction” value is reported as “with no effect”.
In the case of K375A, the “effect of a mutation on the interaction” value is reported as “with no effect”.
With V319D the “effect of a mutation on the interaction” value was “with no effect”.
With K420A the “effect of a mutation on the interaction” value was “with no effect”.
For D300H;R310H, the “effect of a mutation on the interaction” value was “with no effect”.
For D300H;K375A, the “effect of a mutation on the interaction” value was “with no effect”.
With D300H;K420A the “effect of a mutation on the interaction” value was “with no effect”.
For D450H, the “effect of a mutation on the interaction” value was “disrupting interaction strength”.
With R428A the “effect of a mutation on the interaction” value was “with no effect”.

Variants of: B2
Settings: with smad2_human SMAD2, Q15796
In the case of D351H, the “effect of a mutation on the interaction” value is reported as “disrupting interaction strength”.
R361H was tested, and the “effect of a mutation on the interaction” value was “disrupting interaction strength”.
In the case of V370D, the “effect of a mutation on the interaction” value is reported as “with no effect”.
For R420H, the “effect of a mutation on the interaction” value was “with no effect”.
For K428A, the “effect of a mutation on the interaction” value was “decreasing interaction strength”.
For R441P, the “effect of a mutation on the interaction” value was “with no effect”.
In the case of D493H, the “effect of a mutation on the interaction” value is reported as “with no effect”.
In the case of K507A, the “effect of a mutation on the interaction” value is reported as “decreasing interaction strength”.
In the case of Y513A, the “effect of a mutation on the interaction” value is reported as “with no effect”.
R515A was tested, and the “effect of a mutation on the interaction” value was “decreasing interaction strength”.
With D537H the “effect of a mutation on the interaction” value was “with no effect”.
